Assay results taken from the supplement of paper PMC9112550, “Optimization of the antimicrobial peptide Bac7 by deep mutational scanning” (BMC Biology, 2022).

test system: Escherichia coli TOP10; assay: shrunken log2 fold change of peptide-encoding DNA abundance (4.5 h post-induction vs induction); higher = less antimicrobial activity (less host growth inhibition); details: time post-induction: 4.5 h; library: site-saturation at positions 5, 18, 19, 20
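Further: peptides expressed intracellularly from a pBAD plasmid library in pooled LB shake-flask culture, induced with 0.3% L-arabinose, DNA abundance read by NGS, three biological replicates, DESeq2 with apeglm shrinkage.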

Row | Sequence | shrunken log2 fold change
1 | RRIRHRPPRLPRPRPRPCGRPRP | -0.0197
2 | RRIRHRPPRLPRPRPRPCGWPRP | 0.353
3 | RRIRHRPPRLPRPRPRPCISPRP | -0.13
4 | RRIRHRPPRLPRPRPRPCKIPRP | -0.036
5 | RRIRHRPPRLPRPRPRPCMSPRP | 0.12
6 | RRIRHRPPRLPRPRPRPCPAPRP | -0.231
7 | RRIRHRPPRLPRPRPRPCPKPRP | 0.03
8 | RRIRHRPPRLPRPRPRPCSVPRP | -0.00861
9 | RRIRHRPPRLPRPRPRPCYWPRP | -0.026
10 | RRIRHRPPRLPRPRPRPDAEPRP | 0.205
11 | RRIRHRPPRLPRPRPRPDAPPRP | 2.03
12 | RRIRHRPPRLPRPRPRPDAQPRP | 0.0391
13 | RRIRHRPPRLPRPRPRPDCVPRP | -0.383
14 | RRIRHRPPRLPRPRPRPDCWPRP | 0.0871
15 | RRIRHRPPRLPRPRPRPDEEPRP | -0.0946
16 | RRIRHRPPRLPRPRPRPDFMPRP | -0.0635
17 | RRIRHRPPRLPRPRPRPDGNPRP | -0.105
18 | RRIRHRPPRLPRPRPRPDICPRP | -0.622
19 | RRIRHRPPRLPRPRPRPDIFPRP | -0.223
20 | RRIRHRPPRLPRPRPRPDIKPRP | -0.559
21 | RRIRHRPPRLPRPRPRPDKFPRP | -0.16
22 | RRIRHRPPRLPRPRPRPDKRPRP | -0.0145
23 | RRIRHRPPRLPRPRPRPDLWPRP | 0.0395
24 | RRIRHRPPRLPRPRPRPDNQPRP | -0.0673
25 | RRIRHRPPRLPRPRPRPDRPPRP | -0.184

Row | Sequence | shrunken log2 fold change
26 | RRIRHRPPRLPRPRPRPDRVPRP | -0.0183
27 | RRIRHRPPRLPRPRPRPDSVPRP | -0.117
28 | RRIRHRPPRLPRPRPRPDTFPRP | -1.19
29 | RRIRHRPPRLPRPRPRPDTRPRP | -0.0709
30 | RRIRHRPPRLPRPRPRPDTSPRP | -0.0188
31 | RRIRHRPPRLPRPRPRPDVSPRP | -0.198
32 | RRIRHRPPRLPRPRPRPEADPRP | -0.00192
33 | RRIRHRPPRLPRPRPRPEAKPRP | -0.0228
34 | RRIRHRPPRLPRPRPRPECCPRP | 0.203
35 | RRIRHRPPRLPRPRPRPEDAPRP | -0.0619
36 | RRIRHRPPRLPRPRPRPEDDPRP | 0.141
37 | RRIRHRPPRLPRPRPRPEEAPRP | 0.015
38 | RRIRHRPPRLPRPRPRPEFTPRP | -0.0939
39 | RRIRHRPPRLPRPRPRPEGCPRP | 0.0614
40 | RRIRHRPPRLPRPRPRPEHDPRP | -0.051
41 | RRIRHRPPRLPRPRPRPEHPPRP | 0.00839
42 | RRIRHRPPRLPRPRPRPEHQPRP | -0.291
43 | RRIRHRPPRLPRPRPRPEHWPRP | 0.237
44 | RRIRHRPPRLPRPRPRPEIKPRP | -0.264
45 | RRIRHRPPRLPRPRPRPENKPRP | -0.639
46 | RRIRHRPPRLPRPRPRPENPPRP | -0.277
47 | RRIRHRPPRLPRPRPRPEPLPRP | 0.0544
48 | RRIRHRPPRLPRPRPRPEPQPRP | 0.39
49 | RRIRHRPPRLPRPRPRPEPSPRP | 0.137
50 | RRIRHRPPRLPRPRPRPEQQPRP | 0.096

Row | Sequence | shrunken log2 fold change
51 | RRIRHRPPRLPRPRPRPESPPRP | 0.0722
52 | RRIRHRPPRLPRPRPRPESSPRP | 0.087
53 | RRIRHRPPRLPRPRPRPETDPRP | -0.253
54 | RRIRHRPPRLPRPRPRPETHPRP | 0.0411
55 | RRIRHRPPRLPRPRPRPETIPRP | -0.0239
56 | RRIRHRPPRLPRPRPRPEVIPRP | 0.0357
57 | RRIRHRPPRLPRPRPRPEYGPRP | -0.0913
58 | RRIRHRPPRLPRPRPRPFAAPRP | -0.0135
59 | RRIRHRPPRLPRPRPRPFAMPRP | -0.424
60 | RRIRHRPPRLPRPRPRPFCAPRP | 0.076
61 | RRIRHRPPRLPRPRPRPFCGPRP | 0.336
62 | RRIRHRPPRLPRPRPRPFCTPRP | -0.294
63 | RRIRHRPPRLPRPRPRPFDGPRP | -0.258
64 | RRIRHRPPRLPRPRPRPFDHPRP | -0.0277
65 | RRIRHRPPRLPRPRPRPFENPRP | -0.0293
66 | RRIRHRPPRLPRPRPRPFEPPRP | 0.00846
67 | RRIRHRPPRLPRPRPRPFETPRP | 0.0877
68 | RRIRHRPPRLPRPRPRPFFNPRP | -0.632
69 | RRIRHRPPRLPRPRPRPFFTPRP | -0.231
70 | RRIRHRPPRLPRPRPRPFHTPRP | -0.0888
71 | RRIRHRPPRLPRPRPRPFKTPRP | -0.256
72 | RRIRHRPPRLPRPRPRPFLIPRP | -0.687
73 | RRIRHRPPRLPRPRPRPFNFPRP | -0.648
74 | RRIRHRPPRLPRPRPRPFNWPRP | -0.194
75 | RRIRHRPPRLPRPRPRPFPVPRP | 0.0399
